Measurements: the FLAb antibody collection (doi:10.1101/2023.12.08.570889)

Molecular target: IL36R
Test: Kd (SPR)

Row | Binder | Kd
1 | unnamed (protein) chain 1: QVQLVQSGAEVKKPGASVKVSCKASGYSFTSSWIHWVKQAPGQGLEWMGEINPGNVRTNYNENFRNKVTMTVDTSISTAYMELSRLRSDDTAVYYCTRVSFGEPWFDYWGQGTLVTVSS chain 2: QIVLTQSPGTLSLSPGERATMTCTASSSVSSSYFHWYQQKPGQAPRLWIYRTSRLASGVPDRFSGSGSGTDFTLTISRLEPEDAATYYCHQFHRSPLTFGAGTKLEIK | 7.07 nM
2 | unnamed (protein) chain 1: QVQLVQSGAEVKKPGASVKVSCKASGYTFTSSWIHWVKQAPGQGLEWMGEIKPGNSNTNYNENFRNKVTMTVDTSISTAYMELSRLRSDDTAVYYCTRVSYGEPYFDYWGQGTLVTVSS chain 2: QIVLTQSPGTLSLSPGERATMTCTASSSVSSSYFHWYQQKPGQAPRLWIYRTSRLASGVPDRFSGSGSGTDFTLTISRLEPEDAATYYCHQFHRSPLTFGAGTKLEIK | 138 nM
3 | unnamed (protein) chain 1: QVQLVQSGAEVKKPGASVKVSCKASGYTFTSNWIHWVKQAPGQGLEWMGEIYPGNSNTNYNENFRNKVTMTVDTSISTAYMELSRLRSDDTAVYYCTRVRFGEPWFDYWGQGTLVTVSS chain 2: QIVLTQSPGTLSLSPGERATMTCTASSSVSSSYFHWYQQKPGQAPRLWIYRTSRLASGVPDRFSGSGSGTDFTLTISRLEPEDAATYYCHQFHRSPLTFGAGTKLEIK | 46.1 nM
4 | unnamed (protein) chain 1: QVQLVQSGAEVKKPGASVKVSCKASGYSFTSSWIHWVKQAPGQGLEWMGEINPGNVRTNYNENFRNKVTMTVDTSISTAYMELSRLRSDDTAVYYCTRMRYGEPWFDYWGQGTLVTVSS chain 2: QIVLTQSPGTLSLSPGERATMTCTASSSVSSSYFHWYQQKPGQAPRLWIYRTSRLASGVPDRFSGSGSGTDFTLTISRLEPEDAATYYCHQFHRSPLTFGAGTKLEIK | 68.3 nM
5 | unnamed (protein) chain 1: QVQLVQSGAEVKKPGASVKVSCKASGYSFTSSWIHWVKQAPGQGLEWMGEINPGNVRTNYNENFRNKVTMTVDTSISTAYMELSRLRSDDTAVYYCTRQTYGEPYFDYWGQGTLVTVSS chain 2: QIVLTQSPGTLSLSPGERATMTCTASSSVSSSYFHWYQQKPGQAPRLWIYRTSRLASGVPDRFSGSGSGTDFTLTISRLEPEDAATYYCHQFHRSPLTFGAGTKLEIK | 274 nM
6 | unnamed (protein) chain 1: QVQLVQSGAEVKKPGASVKVSCKASGYSFTSSWIHWVKQAPGQGLEWMGEINPGNVRTNYNENFRNKVTMTVDTSISTAYMELSRLRSDDTAVYYCTRVRFGEPWFDYWGQGTLVTVSS chain 2: QIVLTQSPGTLSLSPGERATMTCTASSSVSSSYFHWYQQKPGQAPRLWIYRTSRLASGVPDRFSGSGSGTDFTLTISRLEPEDAATYYCHQFHRSPLTFGAGTKLEIK | 4.32 nM
7 | unnamed (protein) chain 1: QVQLVQSGAEVKKPGASVKVSCKASGYTFTSNWIHWVKQAPGQGLEWMGEIYPGNSNTNYNENFRNKVTMTVDTSISTAYMELSRLRSDDTAVYYCTRVRYGEPWFDYWGQGTLVTVSS chain 2: QIVLTQSPGTLSLSPGERATMTCTASSSVSSSYFHWYQQKPGQAPRLWIYRTSRLASGVPDRFSGSGSGTDFTLTISRLEPEDAATYYCHQFHRSPLTFGAGTKLEIK | 31.8 nM
8 | unnamed (protein) chain 1: QVQLVQSGAEVKKPGASVKVSCKASGYTFTSSWIHWVKQAPGQGLEWMGEIYPGNSNTNYNENFRNKVTMTVDTSISTAYMELSRLRSDDTAVYYCTRSRYGEPWFDYWGQGTLVTVSS chain 2: QIVLTQSPGTLSLSPGERATMTCTASSSVSSSYFHWYQQKPGQAPRLWIYRTSRLASGVPDRFSGSGSGTDFTLTISRLEPEDAATYYCHQFHRSPLTFGAGTKLEIK | 157 nM
9 | unnamed (protein) chain 1: QVQLVQSGAEVKKPGASVKVSCKASGYSFTSSWIHWVKQAPGQGLEWMGEINPGNVRTNYNENFRNKVTMTVDTSISTAYMELSRLRSDDTAVYYCTRSRYGEPYFDYWGQGTLVTVSS chain 2: QIVLTQSPGTLSLSPGERATMTCTASSSVSSSYFHWYQQKPGQAPRLWIYRTSRLASGVPDRFSGSGSGTDFTLTISRLEPEDAATYYCHQFHRSPLTFGAGTKLEIK | 4.79 nM
10 | unnamed (protein) chain 1: QVQLVQSGAEVKKPGASVKVSCKASGYTFTSNWIHWVKQAPGQGLEWMGEIYPGNSNTNYNENFRNKVTMTVDTSISTAYMELSRLRSDDTAVYYCTRVKYGEPYFDYWGQGTLVTVSS chain 2: QIVLTQSPGTLSLSPGERATMTCTASSSVSSSYFHWYQQKPGQAPRLWIYRTSRLASGVPDRFSGSGSGTDFTLTISRLEPEDAATYYCHQFHRSPLTFGAGTKLEIK | 54.3 nM
11 | unnamed (protein) chain 1: QVQLVQSGAEVKKPGASVKVSCKASGYSFTSSWIHWVKQAPGQGLEWMGEIYPGNSNTNYNENFRNKVTMTVDTSISTAYMELSRLRSDDTAVYYCTRLRYGEPYFDYWGQGTLVTVSS chain 2: QIVLTQSPGTLSLSPGERATMTCTASSSVSSSYFHWYQQKPGQAPRLWIYRTSRLASGVPDRFSGSGSGTDFTLTISRLEPEDAATYYCHQFHRSPLTFGAGTKLEIK | 6.22 nM
12 | unnamed (protein) chain 1: QVQLVQSGAEVKKPGASVKVSCKASGYTFTSSWIHWVKQAPGQGLEWMGEIYPGNSNTNYNENFRNKVTMTVDTSISTAYMELSRLRSDDTAVYYCTRSRYGEPYFDYWGQGTLVTVSS chain 2: QIVLTQSPGTLSLSPGERATMTCTASSSVSSSYFHWYQQKPGQAPRLWIYRTSRLASGVPDRFSGSGSGTDFTLTISRLEPEDAATYYCHQFHRSPLTFGAGTKLEIK | 38.2 nM

Stronger by Kd, values ahead:

Row | Kd | Binder
13 | 0.888 nM | unnamed (protein) chain 1: QVQLVQSGAEVKKPGASVKVSCKASGYSFTSSWIHWVKQAPGQGLEWMGEINPGNVRTNYNENFRNKVTMTVDTSISTAYMELSRLRSDDTAVYYCTTVRYGEPYFDYWGQGTLVTVSS chain 2: QIVLTQSPGTLSLSPGERATMTCTASSSVSSSYFHWYQQKPGQAPRLWIYRTSRLASGVPDRFSGSGSGTDFTLTISRLEPEDAATYYCHQFHRSPLTFGAGTKLEIK
14 | 0.758 nM | unnamed (protein) chain 1: QVQLVQSGAEVKKPGASVKVSCKASGYSFTSSWIHWVKQAPGQGLEWMGEINPGNVRTNYNENFRNKVTMTVDTSISTAYMELSRLRSDDTAVYYCTRVSFGEPYFDYWGQGTLVTVSS chain 2: QIVLTQSPGTLSLSPGERATMTCTASSSVSSSYFHWYQQKPGQAPRLWIYRTSRLASGVPDRFSGSGSGTDFTLTISRLEPEDAATYYCHQFHRSPLTFGAGTKLEIK
15 | 1.54 nM | unnamed (protein) chain 1: QVQLVQSGAEVKKPGASVKVSCKASGYSFTSSWIHWVKQAPGQGLEWMGEINPGNVRTNYNENFRNKVTMTVDTSISTAYMELSRLRSDDTAVYYCTRVVFGEPYFDYWGQGTLVTVSS chain 2: QIVLTQSPGTLSLSPGERATMTCTASSSVSSSYFHWYQQKPGQAPRLWIYRTSRLASGVPDRFSGSGSGTDFTLTISRLEPEDAATYYCHQFHRSPLTFGAGTKLEIK
16 | 0.991 nM | unnamed (protein) chain 1: QVQLVQSGAEVKKPGASVKVSCKASGYSFTSSWIHWVKQAPGQGLEWMGEINPGNVRTNYNENFRNKVTMTVDTSISTAYMELSRLRSDDTAVYYCTRVTYGEPYFDYWGQGTLVTVSS chain 2: QIVLTQSPGTLSLSPGERATMTCTASSSVSSSYFHWYQQKPGQAPRLWIYRTSRLASGVPDRFSGSGSGTDFTLTISRLEPEDAATYYCHQFHRSPLTFGAGTKLEIK
17 | 1.13 nM | unnamed (protein) chain 1: QVQLVQSGAEVKKPGASVKVSCKASGYSFTSSWIHWVKQAPGQGLEWMGEINPGNVRTNYNENFRNKVTMTVDTSISTAYMELSRLRSDDTAVYYCTRVFYGEPYFDYWGQGTLVTVSS chain 2: QIVLTQSPGTLSLSPGERATMTCTASSSVSSSYFHWYQQKPGQAPRLWIYRTSRLASGVPDRFSGSGSGTDFTLTISRLEPEDAATYYCHQFHRSPLTFGAGTKLEIK
18 | 3.35 nM | unnamed (protein) chain 1: QVQLVQSGAEVKKPGASVKVSCKASGYSFTSNWIHWVKQAPGQGLEWMGEIYPGNSNTNYNENFRNKVTMTVDTSISTAYMELSRLRSDDTAVYYCTRVRYGEPWFDYWGQGTLVTVSS chain 2: QIVLTQSPGTLSLSPGERATMTCTASSSVSSSYFHWYQQKPGQAPRLWIYRTSRLASGVPDRFSGSGSGTDFTLTISRLEPEDAATYYCHQFHRSPLTFGAGTKLEIK
19 | 0.649 nM | unnamed (protein) chain 1: QVQLVQSGAEVKKPGASVKVSCKASGYSFTSSWIHWVKQAPGQGLEWMGEINPGNVRTNYNENFRNKVTMTVDTSISTAYMELSRLRSDDTAVYYCTRVVYGEPYFDYWGQGTLVTVSS chain 2: QIVLTQSPGTLSLSPGERATMTCTASSSVSSSYFHWYQQKPGQAPRLWIYRTSRLASGVPDRFSGSGSGTDFTLTISRLEPEDAATYYCHQFHRSPLTFGAGTKLEIK
